Measured values: IntAct's records for PubMed 25960410

B1: Mortality factor 4-like protein 1 (Homo sapiens), Q9UBU8-2 (parent)
chain: MAPKQDPKPKFQEGERVLCFHGPLLYEAKCVKVAIKDKQVKYFIHYSGWNKNWDEWVPESRVLKYVDTNLQKQRELQKANQEQYAEGKMRGAAPGKKTSGLQQKNVEVKTKKNKQKTPGNGDGGSTSETPQPPRKKRARVDPTVENEETFMNRVEVKVKIPEELKPWLVDDWDLITRQKQLFYLPAKKNVDSILEDYANYKKSRGNTDNKEYAVNEVVAGIKEYFNVMLGTQLLYKFERPQYAEILADHPDAPMSQVYGAPHLLRLFVRIGAMLAYTPLDEKSLALLLNYLHDFLKYLAKNSATLFSASDYEVAPPEYHRKAV

Variants of: B1
Details: with mrgbp_human MRGBP

| Variant | effect of a mutation on the interaction |
| --- | --- |
| W172A | decreasing interaction strength |
| L287A | decreasing interaction strength |
| L168A | decreasing interaction strength |
